The source of these data is patent US20220356229A1.

Changes are numbered by the printed parent chain. Values joined by “and” are separate entries in the source; they are usually repeats but may differ in a detail not shown here. Identical values can stand only once.

The labels stand for the following.
B1: anti-SARS-CoV-2 antibody 319 (antibody, V domains shown)
VH: QVQLVESGGGVVQPGRSLRLSCAASGFNLSNYAMHWVRQASGKGLEWVSLISYDGSIKYYTDSVKGRFTVSGDNSKNTLFLQMNSLRPDDSALYYCVRGGVSGPNSFDMWGQGTTVTVSS
VL: DVVMTQSPLSLPVTLGQPASISCRSSQSLVYSDGNTYVNWFQQRPGQSPRRLIYQVSIRASGVPDRFSGSGSGTDFALKISRVEAEDVGVYYCMQGTHWPVTFGQGTKVEIK
B2: anti-SARS-CoV-2 antibody 316 (antibody, V domains shown)
VH: QVHLVESGGGVVQPGRSLRLSCAASGFTLTAYAMHWVRQAPGKRLEWVALISYDGSVKKYADSVKGRITVSGDTSTNTLHLQMNSLRADDTAVYYCVRGGVSGPNSFDLWGQGTMVTVSS
VL: B1 VL with I21M, V30E, Q42H, Q55K, I58Y, A60D, A77T, K79Q, V90I
B3: anti-SARS-CoV-2 antibody 311 (antibody, V domains shown)
VH: QVQLQESGPGLVKPSETLSLTCTVSGYSISSGYYWGWIRQPPGKGLEWIGSIYHSGSTYYNPSLKSRVTISVDTSKNQFSLKLSSVTAADTAVYYCAREETLGSSWYESYIDYWGQGTLVTVSS
VL: SYVLTQPPSVSVAPGKTARITCGGNNIGSKSVHWYQQKPGQAPVLVIYYDSDRPSGIPERFSGSNSGNTATLTISRVEAGDEADYYCQVWDSSSDHPRVFGGGTKLTVL
B4: anti-SARS-CoV-2 antibody 315 (antibody, V domains shown)
VH: QVQLVQSGSELKKPGASVKLSCQASGYSFTNHAMNWVRQAPGQGLEWMGWINTNTGNPTYAQGFTGRFVFSLDTSVSTTYLHISSLKAEDTAVYYCARASARPGVATNLDFWGQGTLVVVSS
VL: DIQMTQSPSSLSASVGDRVTITCRASQNIDNYLNWYQQKPGKAPKLLIYAASRLHSGVPSRFSGSGSGTDFTLIISSLQPEDLATYYCQQSYSNPLTFGPGTKVDIR
B5: anti-SARS-CoV-2 antibody 318 (antibody, V domains shown)
VH: QVQLVESGGGVVPPGRSLSLPCAASGFSFSAYAMHWLRQAPGKGLEWVAVISYDGTVKYVADSVRGRFTISRDNSNNTLYLQMTSLRSDDTAVYYCARDLGALAAAPTVYFVHWGQGTLVTVSS
VL: SYVLTQPPSVSVAPGKTATITCAGEDIGRKSVHWYQQKPGQAPVLVIFYYSDRPSGIPDRFSGSVSGNTATLTIGRVEAGDEADYFCQVWDRTTNHVIFGGGTKVTVL
B6: anti-SARS-CoV-2 antibody 304 (antibody, V domains shown)
VH: EVQLLESGGGLVQPGGSLRLSCAASGFTFSTYAMSWVRQAPGKGLEWVSAISGSGGSTYYADSVKGRFTISRDNSKNTLYLQMNSLRAEDTAVYYCASGYSPDYWGQGTLVTVSS
VL: AIQMTQSPSSLSASVGDRVTITCRASQGIRNDLGWYQQKPGKAPKLLIYAASSLQSGVPSRFSGSGSGTDFTLTISSLQPEDFATYYCLQDYNYPRTFGQGTKVEIK
B7: antibody 259 (antibody, V domains shown)
VH: EVQLVQSGAEVKKPGATVKISCKVSGYTFTDYYMHWVQQAPGKGLEWMGLVDPEDGETIYAEKFQGRVTITADTSTDTAYMELSSLRSEDTAVYYCATDLLSWKLYCSGGSCPQMDVWGQGTTVTVSS
VL: B6 VL with A1D, L46R, D70E, D91H, Y92N, N93S, R96Q, V104L
B8: antibody 362 (antibody, V domains shown)
VH: B1 VH with I57V
VL: B1 VL with S20T
B9: antibody 337 (antibody, V domains shown)
VH: QVQLVESGGGVVQPGRSLRLSCAASGFTFSSYGMHWVRQAPGKGLEWVAIIWYDGSNKYYADSVKGRFTISRDNSKNTLYLQMNSLRAEDTAVYYCAKDTGGYCSGGSCYPESYFDYWGQGTLVTVSS
VL: B3 VL with S75N, S92G, P97L, R98Y, G102T, L106V
B10: antibody 452 (antibody, V domains shown)
VH: QVQLVESGGGLVKPGGSLRLSCAASGFTFSDYYLSWIRQAPGKGLEWVSYISSSGSNIYYADSVKGRFTISRDNAKNSLYLQMNSLRADDTAVFYCARAGRYCSGGSCRVEYFQHWGQGTLVTVSS
VL: SYELTQPPSVSVSPGQTARITCSGDALPKQYAYWYQQKPGQAPVLVIYKDNERPSGIPERFSGSSSGTTATLTISGVQAEDEADYYCQSADSSGTVVFGGGTKLTVL
B11: antibody 315 (antibody, V domains shown)
VH: B4 VH
VL: B4 VL
B12: antibody 416 (antibody, V domains shown)
VH: EVQLVESGGGLVQPGRSLRLSCAASGFTFDDYAMHWVRQAPGKGLEWVSGISWNSGSIGYADSVKGRFTISRDNAKNSLYLQMNSLRAEDTALYYCAKDLAWLSGGMDVWGQGTTVTVSS
VL: not shown
B13: antibody 392 (antibody, V domains shown)
VH: QVQLQESGPGLVKPSGTLSLTCAVSGGSISSSNWWSWVRQPPGKGLEWIGEIYHSGSTNYNPSLKSRVTISVDKSKNQFSLKLSSVTAADTAVYYCARGWRATLYGMDVWGQGTTVTVSS
VL: QSALTQPASVSGSPGQSITISCTGTSSDVGSYNLVSWYQQHPGKAPKLMIYEVSKRPSGVSNRFSGSKSGNTASLTISGLQAEDEADYYCCSYAGSSTWVFGGGTKLTVL
B14: antibody 390 (antibody, V domains shown)
VH: EVQLVESGGGLIQPGGSLRLSCAASGFTVSSNYMSWVRQAPGKGLEWVSIIYSGGSTYYADSVKGRFTISRDNSKNTLYLQMNSLRAEDSAVYSCATTMVRGLIISYYYGMDVWGQGTTVTVSS
VL: B13 VL with S31G, L34Y, K55N, C91S, A94T, G95S, W99L
B15: antibody 413 (antibody, V domains shown)
VH: EVQLVESGGGLIQPGGSLRLSCAASGFTVSGNYMNWVRQAPGKGLEWVSVIYSGGSTYYADSVKGRFTISRANSKNTLYLQMNSLRAEDTAVYYCASTSLVRGLIILYYYGMDVWGQGTTVTVSS
VL: B13 VL with S31G, L34Y, K55N, C91S, A94T, G95S, W99L
B16: antibody 396 (antibody, V domains shown)
VH: QVQLQQWGAGLLKPSETLSLTCAVYGGSFSGYYWSWIRQPPGKGLEWIGEIIHSGSTNYNPSLKSRVTISVDTSKNQFSLKLSSVTAADTAVYYSARRTGLLWFREGSYYFDYWGQGTLVTVSS
VL: B6 VL with A1D, L46R, D70E, D91H, Y92N, N93S, R96L, Q100G
B17: antibody 521 (antibody, V domains shown)
VH: QVQLVESGGGVVQPGRSLRLSCAASGFTFSSYGMHWVRQAPGKGLEWVAVIWYDGSNKYYADSVKGRFTISRDNSKNTLYLQMNSLRAEDTAVYYCAREGNDYGDYGEWELLGYFDYWGQGTLVTVSS
VL: SYELTQPPSVSVSPGQTARITCSGDALPKKYAYWYQQKSGQAPVLVIYEDSKRPSGIPERFSGSSSGTMATLTISGAQVEDEADYYCYSTDSSGNHRRVFGGGTKLTVL
B18: antibody 322 (antibody, V domains shown)
VH: EVQLVESGGGLVQPGGSLRLSCAASGFTFSSYWMSWVRQAPGKGLEWVANIKQDGSEKYYVDSVKGRFTISRDNAKNSLYLQMNSLRAEDTAVYYCARDEDVAAALDYWGQGTLVTVSS
VL: SYVLTQPPSVSVAPGKTARITCGGNNIGSKSVHWYQQKPGQAPVLVIYYDSDRPSGIPERFSGSNSGNTATLTISRVEAGDEADYYCQVWDSSSDHPERVFGGGTKLTVL
B19: antibody 493 (antibody, V domains shown)
VH: B14 VH with G16R, S31I, N32T, I50L, T57S, S90T, S94Y, L103V
VL: B13 VL with S31G, L34Y, K55N, C91S, A94T, G95S, W99L
B20: antibody 325 (antibody, V domains shown)
VH: QVQLQESGPGLVKPSQTLSLTCTVSGGSISGGGYYWSWIRQHPGKGLEWIGYIYYSGSTYYNPSLQSRVTISVDTSKNQFSLKLSSVTAADTAVYYCARVGTSSVWYFDYWGQGTLVTVSS
VL: QSALTQPRSVSGSPGQSVTISCTGTSSDVGGYNYVSWYQQHPGKAPKLMIYDVTKRPSGVPDRFSGSKSGNTASLTISGLQAEDEADYYCSSYAGSWVFGGGTKLTVL

The first assay concerns the target full length Spike of WIV1 (WIV1).
Conditions: not given
With B1, the fold over isotype control (median fluorescence) (fold over isotype) was determined as 96.2. Still for that read-out and setting: to B2 belongs 93.8; to B3, 1.11 and 1.14.

The molecule B4 registered a fold over isotype control (median fluorescence) (fold over isotype) of 1.09. On the same count and under the same terms, in the case of B5 it was 291 and 166; in that of B6, 1.01 and 1.04.

For a further assay, the target named is T1, SARS-CoV-2 Spike (S) protein, wild type, full length (SARS-CoV-2), P0DTC2. Particulars: remark: other sources report otherwise.
In turn, B7 returned a bead binding signal (fold over isotype) (fold over isotype) of 275.

Another assay addresses SARS-CoV-2 full length Spike protein, wild type (SARS-CoV-2), P0DTC2. Particulars: remark: other sources report otherwise.
In turn, B8 returned a bead binding signal (fold over isotype) (fold over isotype) of 503. As for B9, the bead binding signal (fold over isotype) (fold over isotype) is 756. With B10, the median fluorescence fold over isotype (fold over isotype control) was found to be 854. In turn, B11 showed a bead binding signal (fold over isotype) (fold over isotype) of 592. In turn, B12 yielded a median fluorescence fold over isotype (fold over isotype control) of 110. In the case of B13, the fold over isotype control (median fluorescence) (fold over isotype) is 509.

Regarding B14, the fold over isotype control (median fluorescence) (fold over isotype) is 637 and 341 and 318.

In the case of B15, the median fluorescence fold over isotype (fold over isotype control) is 969 and 367 and 416.

On to B16, for which the fold over isotype control (median fluorescence) (fold over isotype) is 553.

Another assay has as its target T1, SARS-CoV-2 Spike (S) protein, wild …. Particulars: remark: other sources report otherwise. The source holds these as a separate data set.
Molecule B8 gave a fold over isotype (median fluorescence intensity) (fold over isotype) of 9.45. For the molecule B17, the median fluorescence, fold over isotype control (fold over isotype) was found to be 0.86.

Consider B18, for which the fold over isotype (median fluorescence intensity) (fold over isotype) came out at 1.65. For B19, the median fluorescence, fold over isotype control (fold over isotype) stood at 1.1. As to B20, the fold over isotype (median fluorescence intensity) (fold over isotype) is 1.08.
